Laboratory results taken from paper PMC8732845, “Novel interaction between neurotrophic factor-α1/carboxypeptidase E and serotonin receptor, 5-HTR1E, protects human neurons against oxidative/neuroexcitotoxic stress via β-arrestin/ERK signaling” (Cellular and Molecular Life Sciences: CMLS, 2021).

Biological target: 5-hydroxytryptamine receptor 1-E (5-HTR1E) on stably transfected HEK293 cells (human, UniProt P28566 1-365)
Assay: cell-based or functional assay

Chain of 5-hydroxytryptamine receptor 1-E (5-HTR1E) on stably transfected HEK293 cells (P28566 whole entry): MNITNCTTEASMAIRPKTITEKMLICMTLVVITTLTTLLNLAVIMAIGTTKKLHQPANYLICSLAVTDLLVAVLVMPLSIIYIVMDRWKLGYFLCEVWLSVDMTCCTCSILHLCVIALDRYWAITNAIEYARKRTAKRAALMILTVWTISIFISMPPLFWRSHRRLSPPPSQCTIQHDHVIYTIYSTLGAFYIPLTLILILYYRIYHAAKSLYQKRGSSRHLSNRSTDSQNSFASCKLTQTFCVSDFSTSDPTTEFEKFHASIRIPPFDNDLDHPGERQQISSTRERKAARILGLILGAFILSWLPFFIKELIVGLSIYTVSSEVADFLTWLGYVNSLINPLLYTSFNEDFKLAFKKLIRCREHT

B1: Recombinant mouse NF-α1/CPE (neurotrophic factor-α1/carboxypeptidase E), unlabeled (ligand)
chain: not shown
  CREB phosphorylation (Western blot, pCREB/tCREB) in 5-HTR1E stable cells, 50 nM NF-α1/CPE, 10–60 min (value after 20 min); not in control HEK293 cells: 1.3 fold
  phosphorylation of ERK 1/2 (Western blot, pERK/tERK) in 5-HTR1E stable HEK293 cells, 0–50 nM NF-α1/CPE for 5–15 min; not in control HEK293 cells: 3.4 fold
